In patent US20230227537A1:
Where “and” joins values, the source holds several entries; their conditions need not be identical. Equal entries are not always repeated.

Experiments:
[1] = molecular target: recombinant prefusion stabilized SARS-CoV-2-2P spike protein (SARS-CoV-2) (UniProt P0DTC2)
[2] = molecular target: Mouse IgG1 Fc fused SARS-CoV-2 RBD (Sino Biological) (SARS-CoV-2; mouse) (UniProt P0DTC2)

Row | Substance | EC50 [1] [µg/mL] | % Signal decrease over 8 min dissociation [2] | Kd [2] | kon [2] | koff [2]
1 | D72-02: VHH72-GS-hIgG1hinge-hIgG1Fc (Fc fusion) | 0.0223 | – | – | – | –
2 | VHH72-T60W-hIgG1 Fc (P. pastoris supernatant) (Fc fusion) | – | 13% and 15% | 75.7 nM and 53.1 nM | 41500 M⁻¹ s⁻¹ and 49700 M⁻¹ s⁻¹ | –
3 | VHH72_D61Q - (GGGGS)x2-hIgG1.Hinge-hIgG1.Fc (Fc fusion) | – | 8% and 10% | 0.0661 nM and 0.0642 nM | 2.76e+06 M⁻¹ s⁻¹ and 3.19e+06 M⁻¹ s⁻¹ | 0.000183 s⁻¹ and 0.000205 s⁻¹
4 | VHH72_V100L - (GGGGS)x2-hIgG1.Hinge-hIgG1.Fc (Fc fusion) | – | 23% and 25% | 0.076 nM and 0.0771 nM | 7.34e+06 M⁻¹ s⁻¹ and 8.26e+06 M⁻¹ s⁻¹ | 0.000557 s⁻¹ and 0.000637 s⁻¹
